Experimental data published in article PMC7820887 (Frontiers in Immunology, 2020).

T1: soluble extracellular domain of human IL-5 receptor alpha subunit (sIL-5Rα) (human, UniProt Q01344 21-333)
T1 chain: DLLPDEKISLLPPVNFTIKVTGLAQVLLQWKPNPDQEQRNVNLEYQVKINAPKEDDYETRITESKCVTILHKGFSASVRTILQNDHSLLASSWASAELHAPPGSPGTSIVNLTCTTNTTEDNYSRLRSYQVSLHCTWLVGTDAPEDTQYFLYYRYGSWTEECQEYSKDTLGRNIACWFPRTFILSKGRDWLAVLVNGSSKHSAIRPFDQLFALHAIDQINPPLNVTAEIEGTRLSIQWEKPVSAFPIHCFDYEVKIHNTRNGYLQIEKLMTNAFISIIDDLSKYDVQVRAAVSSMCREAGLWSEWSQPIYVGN


Experiments:
[1] = biological target: T1, soluble extracellular domain of human …; assay: ELISA; competition with plate-immobilized IL-5-mFc
[2] = biological target: T2, soluble extracellular domain of human IL-5 receptor alpha subunit (sIL-5Rα) (human, UniProt Q01344); assay: BLI; Octet QKe, 30°C, 1× kinetics buffer in PBS pH 7.4; Ab immobilised on anti-human IgG Fc capture (AHC) biosensors, sIL-5Rα as analyte; association 300 s, dissociation 600 s; 1:1 binding model; settings: both partners purified
T2 construct: human IL-5 receptor alpha subunit (IL-5Rα, CD125), extracellular domain, residues 21–333; subcloned from a cDNA of residues 1–420; Expressed from the pSecTag2A vector; migrates at ~50 kDa (glycosylated); A biotinylated form (BirA) was used only for library screening; also called sIL-5α; CD125; source: HEK293F, transiently transfected, purified (Ni-NTA); not shown: Avi, C-terminal, kept; His6, …

insulin = biological target: T3, insulin (Homo sapiens (assumed), UniProt P01308); assay: ELISA; plates coated at 25°C for 1 h with sIL-5Rα (50 ng/well) or off-target antigens (insulin 125 ng/well, hemocyanin 125 ng/well); Abs 8–200 nM in PBST pH 7.4 with 2% skim milk, 25°C, 1 h; detected with HRP anti-human Fc or anti-mouse Fc; settings: both partners purified
T3 construct: insulin B chain; insulin A chain; Off-target antigen of the nonspecificity ELISA (125 ng/well)
T3 sequence (P01308 whole entry, looked up): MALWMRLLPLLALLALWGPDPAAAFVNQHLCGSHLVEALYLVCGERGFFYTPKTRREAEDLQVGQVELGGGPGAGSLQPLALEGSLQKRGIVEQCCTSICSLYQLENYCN

[3] = biological target: T2, soluble extracellular domain of human …; assay: cell-based or functional assay
[4] = biological target: T2, soluble extracellular domain of human …; assay: ELISA; competitive: plates coated with IL-5-mFc (100 ng/well); sIL-5Rα (50 nM) added with anti–IL-5Rα Abs (0–1 µM), 25°C, 1 h; bound sIL-5Rα detected with HRP anti-His; settings: both partners purified

Row | Binder | IC50 [1] [nM] | Kd [2] [nM] | koff [2] [s⁻¹] | kon [2] [M⁻¹ s⁻¹] | binding result (insulin) | IC50 of inhibition of rhIL-5 (80 pM)-stimulated proliferation of TF-1/IL-5Rα cells, Abs 0 to 32 nM, 40 h (blocks IL-5 with IL-5Rα) [3] [nM] | IC50 [4] [nM] | NK cell–mediated ADCC against peripheral eosinophils from healthy controls (autologous NK cells 1:5, Ab 1 μM, rhIL-5 100 pM, 20 h), fold against the benralizumab analogue [3] [fold]
1 | 5R68 (antibody, V domains shown, Human IgG1, kappa; selected as scFab by yeast display from the hu2B7 VH-CDR2 library; source: HEK293F, purified (Protein A)) VH: QVQLVQSGAEVKKPGSSVKVSCKASGYTFTSYWINWVRQAPGQGLEWIGHIYPTATIAVYNDKFKDKATLTVDKSTNTAYMELSSLRSEDTAVYYCTRDYYGRSYYYAMDYWGQGTTLTVSS VL: DIQMTQSPSTLSASVGDRVTITCKASQNVGTAVAWYQQKPGKAPKLLIYWASTRHTGVPDRFSGSGSGTDFTLTISSLQPDDFATYYCQQFGRYPYTFGSGTKVEVK | 28.8 | 24.1 ± 0.47 | 0.000566 | 23500 | no binding (tested: 100 nM) |  |  | 
2 | 5R86 (antibody, V domains shown, Human IgG1, kappa; selected as scFab by yeast display from the hu2B7 VH-CDR2 library; source: HEK293F, purified (Protein A)) VH: QVQLVQSGAEVKKPGSSVKVSCKASGYTFTSYWINWVRQAPGQGLEWIGHIYPTSSVKFYNNKFKDKATLTVDKSTNTAYMELSSLRSEDTAVYYCTRDYYGRSYYYAMDYWGQGTTLTVSS VL: DIQMTQSPSTLSASVGDRVTITCKASQNVGTAVAWYQQKPGKAPKLLIYWASTRHTGVPDRFSGSGSGTDFTLTISSLQPDDFATYYCQQFGRYPYTFGSGTKVEVK | 14.1 | 11.8 ± 0.51 | 0.0003 | 25400 | no binding (tested: 100 nM) |  |  | 
3 | hu2B7 humanized anti–IL-5Rα antibody (antibody, V domains shown, VH of hu2B7: CDRs of m2B7 grafted on the FRs of daclizumab, mouse ThrH93 (Kabat) kept; VL of hu2B7: CDRs of m2B7 grafted on the FRs of daclizumab, mouse AspL60 and AspL70 kept; Full-length human IgG1, kappa; source: HEK293F, transiently cotransfected, purified (Protein A)) VH: QVQLVQSGAEVKKPGSSVKVSCKASGYTFTSYWINWVRQAPGQGLEWIGHIYPSESYTNYNQKFKDKATLTVDKSTNTAYMELSSLRSEDTAVYYCTRDYYGRSYYYAMDYWGQGTTLTVSS VL: DIQMTQSPSTLSASVGDRVTITCKASQNVGTAVAWYQQKPGKAPKLLIYWASTRHTGVPDRFSGSGSGTDFTLTISSLQPDDFATYYCQQFGRYPYTFGSGTKVEVK | 57.4 | 47.8 ± 1.06 | 0.00106 | 22200 |  |  |  | 
4 | 5R80 (antibody, V domains shown, Human IgG1, kappa; selected as scFab by yeast display from the hu2B7 VH-CDR2 library; source: HEK293F, purified (Protein A)) VH: QVQLVQSGAEVKKPGSSVKVSCKASGYTFTSYWINWVRQAPGQGLEWIGHIYPQKTLTIYNHKFKDKATLTVDKSTNTAYMELSSLRSEDTAVYYCTRDYYGRSYYYAMDYWGQGTTLTVSS VL: DIQMTQSPSTLSASVGDRVTITCKASQNVGTAVAWYQQKPGKAPKLLIYWASTRHTGVPDRFSGSGSGTDFTLTISSLQPDDFATYYCQQFGRYPYTFGSGTKVEVK | 24.2 | 16.2 ± 0.59 | 0.000365 | 22500 | no binding (tested: 100 nM) |  |  | 
5 | benralizumab analogue (antibody, V domains shown, VH of benralizumab, made by DNA synthesis; VL of benralizumab, made by DNA synthesis; Human IgG1, kappa; VH and VL identical to commercial benralizumab but with core fucose on the Fc N-glycan; also called benralizumab analogue (fucosylated human IgG1); source: HEK293F, transiently transfected, purified (Protein A)) VH: EVQLVQSGAEVKKPGASVKVSCKASGYTFTSYVIHWVRQRPGQGLAWMGYINPYNDGTKYNERFKGKVTITSDRSTSTVYMELSSLRSEDTAVYLCGREGIRYYGLLGDYWGQGTLVTVSS VL: DIQMTQSPSSLSASVGDRVTITCGTSEDIINYLNWYQQKPGKAPKLLIYHTSRLQSGVPSRFSGSGSGTDFTLTISSLQPEDFATYYCQQGYTLPYTFGQGTKVEIK |  | 26.8 ± 0.52 | 0.0011 | 41100 |  | ~1.99 | ~9.8 | 
6 | 5R65 (antibody, V domains shown, Human IgG1, kappa; selected as scFab by yeast display from the hu2B7 VH-CDR2 library; also called 5R65 Ab; source: HEK293F, purified (Protein A)) VH: QVQLVQSGAEVKKPGSSVKVSCKASGYTFTSYWINWVRQAPGQGLEWIGHIYPNKNENYYNHKFKDKATLTVDKSTNTAYMELSSLRSEDTAVYYCTRDYYGRSYYYAMDYWGQGTTLTVSS VL: DIQMTQSPSTLSASVGDRVTITCKASQNVGTAVAWYQQKPGKAPKLLIYWASTRHTGVPDRFSGSGSGTDFTLTISSLQPDDFATYYCQQFGRYPYTFGSGTKVEVK |  | 14.5 ± 0.29 | 0.000329 | 22700 | no binding (tested: 100 nM) | ~11.8 | ~9.5 | ~1.5
7 | 5R65.7 (antibody, V domains shown, as the VH of m6 (5R65) with mutations in VH-CDR3 (Kabat residues 95–100d were randomised); no mutations in VL-CDR3; Human IgG1, kappa; selected as scFab by yeast display from the 5R65 CDR3 library under kinetic screening; also called 5R65.7 Ab; source: HEK293F, purified (Protein A)) VH: QVQLVQSGAEVKKPGSSVKVSCKASGYTFTSYWINWVRQAPGQGLEWIGHIYPNKNENYYNHKFKDKATLTVDKSTNTAYMELSSLRSEDTAVYYCTREFYGRQYYQAMDYWGQGTTLTVSS VL: DIQMTQSPSTLSASVGDRVTITCKASQNVGTAVAWYQQKPGKAPKLLIYWASTRHTGVPDRFSGSGSGTDFTLTISSLQPDDFATYYCQQFGRYPYTFGSGTKVEVK |  | 4.64 ± 0.23 | 0.000147 | 31700 |  | ~0.57 |  | ~3
8 | m2B7 murine anti–IL-5Rα antibody (antibody, V domains shown, VH of murine m2B7; FRs of mouse germline IGHV1-61*01; VL of murine m2B7; FRs of mouse germline IGKV6-23*01; source: hybridoma supernatant, expanded and purified) VH: QVQLQQPGAELVRPGASVKLSCKASGYTFTSYWINWVKQRPGQGLEWIGHIYPSESYTNYNQKFKDKATLTVDKSSSTAYMQLSSPTSEDSAVYYCTRDYYGRSYYYAMDYWGQGTSVTVSS VL: DIVMTQSHKFMSTSVGDRVSITCKASQNVGTAVAWYQQKPGQSPKLLIYWASTRHTGVPDRFTGSGSGTDFTFTISNVQSEDLADYFCQQFGRYPYTFGGGTKLEIK |  | 40.2 ± 0.84 | 0.000834 | 20700 |  |  |  | 
9 | 5R65.10 (antibody, V domains shown, as the VH of m6 (5R65) with mutations in VH-CDR3 (Kabat residues 95–100d were randomised); no mutations in VL-CDR3; Human IgG1, kappa; selected as scFab by yeast display from the 5R65 CDR3 library under kinetic screening; source: HEK293F, purified (Protein A)) VH: QVQLVQSGAEVKKPGSSVKVSCKASGYTFTSYWINWVRQAPGQGLEWIGHIYPNKNENYYNHKFKDKATLTVDKSTNTAYMELSSLRSEDTAVYYCTREYYGRSYYAAMDYWGQGTTLTVSS VL: DIQMTQSPSTLSASVGDRVTITCKASQNVGTAVAWYQQKPGKAPKLLIYWASTRHTGVPDRFSGSGSGTDFTLTISSLQPDDFATYYCQQFGRYPYTFGSGTKVEVK |  | 8.25 ± 0.4 | 0.000201 | 24400 |  |  |  | 
10 | 5R65.14 (antibody, V domains shown, as the VH of m6 (5R65) with mutations in VH-CDR3 (Kabat residues 95–100d were randomised); no mutations in VL-CDR3; Human IgG1, kappa; selected as scFab by yeast display from the 5R65 CDR3 library under kinetic screening; source: HEK293F, purified (Protein A)) VH: QVQLVQSGAEVKKPGSSVKVSCKASGYTFTSYWINWVRQAPGQGLEWIGHIYPNKNENYYNHKFKDKATLTVDKSTNTAYMELSSLRSEDTAVYYCTREHYGRPYYNAMDYWGQGTTLTVSS VL: DIQMTQSPSTLSASVGDRVTITCKASQNVGTAVAWYQQKPGKAPKLLIYWASTRHTGVPDRFSGSGSGTDFTLTISSLQPDDFATYYCQQFGRYPYTFGSGTKVEVK |  | 8.64 ± 0.35 | 0.000199 | 23000 |  |  |  | 
11 | 5R65.18 (antibody, V domains shown, as the VH of m6 (5R65) with mutations in VH-CDR3 (Kabat residues 95–100d were randomised); no mutations in VL-CDR3; Human IgG1, kappa; selected as scFab by yeast display from the 5R65 CDR3 library under kinetic screening; source: HEK293F, purified (Protein A)) VH: QVQLVQSGAEVKKPGSSVKVSCKASGYTFTSYWINWVRQAPGQGLEWIGHIYPNKNENYYNHKFKDKATLTVDKSTNTAYMELSSLRSEDTAVYYCTREYYGRTYYSAMDYWGQGTTLTVSS VL: DIQMTQSPSTLSASVGDRVTITCKASQNVGTAVAWYQQKPGKAPKLLIYWASTRHTGVPDRFSGSGSGTDFTLTISSLQPDDFATYYCQQFGRYPYTFGSGTKVEVK |  | 5.95 ± 0.27 | 0.000133 | 22400 |  |  |  | 
12 | 5R65.39 (antibody, V domains shown, as the VH of m6 (5R65) with mutations in VH-CDR3 (Kabat residues 95–100d were randomised); no mutations in VL-CDR3; Human IgG1, kappa; selected as scFab by yeast display from the 5R65 CDR3 library under kinetic screening; source: HEK293F, purified (Protein A)) VH: QVQLVQSGAEVKKPGSSVKVSCKASGYTFTSYWINWVRQAPGQGLEWIGHIYPNKNENYYNHKFKDKATLTVDKSTNTAYMELSSLRSEDTAVYYCTREFYGRSRYSAMDYWGQGTTLTVSS VL: DIQMTQSPSTLSASVGDRVTITCKASQNVGTAVAWYQQKPGKAPKLLIYWASTRHTGVPDRFSGSGSGTDFTLTISSLQPDDFATYYCQQFGRYPYTFGSGTKVEVK |  | 6.13 ± 0.32 | 0.000171 | 28000 |  |  |  | 
13 | 5R65.45 (antibody, V domains shown, as the VH of m6 (5R65) with mutations in VH-CDR3 (Kabat residues 95–100d were randomised); no mutations in VL-CDR3; Human IgG1, kappa; selected as scFab by yeast display from the 5R65 CDR3 library under kinetic screening; source: HEK293F, purified (Protein A)) VH: QVQLVQSGAEVKKPGSSVKVSCKASGYTFTSYWINWVRQAPGQGLEWIGHIYPNKNENYYNHKFKDKATLTVDKSTNTAYMELSSLRSEDTAVYYCTREYYGRSYYNAMDYWGQGTTLTVSS VL: DIQMTQSPSTLSASVGDRVTITCKASQNVGTAVAWYQQKPGKAPKLLIYWASTRHTGVPDRFSGSGSGTDFTLTISSLQPDDFATYYCQQFGRYPYTFGSGTKVEVK |  | 7.26 ± 0.36 | 0.000181 | 24900 |  |  |  | 
